Measurements: patent US12618081B2, “Brown marmorated and harlequin stink bug pheromone enzyme synthesis and uses thereof” (VIRGINIA TECH INTELLECTUAL PROPERTIES, INC., priority 2019, dated 2026)

Assays:
H. halys = details: added to a trap containing the two principle components of the H. halys pheromone; cited from earlier work
[1] = TPS activity assay of recombinant H. halys IDS-like proteins, GC-MS; type: biochemical, Halyomorpha halys
Procedure: Assays with heterologously expressed protein were performed in assay buffer (see above) in a total volume of 100 μl with partially purified protein, 1 mM DTT, and 50 μM allylic substrate [(E,E)-, (Z,E)- or (Z,Z)-FPP] and incubated at 30° C. for 1 h with a 100 μL hexane overlay. Assays were stopped on ice and compounds extracted by mixing (vortex) at maximum speed for 15 sec. Phases were separated by centrifugation at 4000×g for 10 min and the hexane phase was removed and dried over MgSO4. One μl of liquid sample was injected in splitless mode and analyzed by GC-MS.
(§1) GC-MS analysis was performed by liquid injection at 240° C. running in split 5 mode and separated on a GC-2010 gas chromatograph (Shimadzu, Kyoto, Japan) using a 30 m×0.25 mm i.d.×0.25 μm film Zebron ZB-XLB column coupled with a QP2010S mass spectrometer (Shimadzu). The GC program was as follows: 40° C. with 2 min hold, then raised to 220° C. at 5° C./min, then raised to 240° C. at 70° C./min followed by a 2 min hold time. Mass spectrometry was performed with an ion source temperature of 240° C., interface temperature of 280° C., electron ionization (EI) potential of 70 eV and scan range of 50 to 400 atomic mass units. Helium was used as a carrier gas at 1.9 mL/min. Terpene olefin products were identified by comparison of retention times and mass spectra with those of authentic standards.

[2] = IDS (prenyltransferase) activity assay of recombinant M. histrionica proteins, LC-MS/MS; type: biochemical, Murgantia histrionica; details: IPP and DMAPP as substrates
Procedure: (§2) For enzyme assays, 96 μl of partially purified protein were mixed with 2 μl 50 μM isopentenyl diphosphate (IPP; Sigma) and 2 μl 50 μM dimethylallyl diphosphate (DMAPP; Sigma) and incubated at 30° C. for 2 h. Analysis of IDS enzyme products was done using an Agilent 1260 HPLC system (Agilent Technologies) coupled to an API 5000 triple-quadrupole mass spectrometer (AB Sciex Instruments) according to the protocol described by Beran et al. (Beran et al., 2016).

[3] = TPS activity assay of recombinant M. histrionica IDS-like proteins, GC-MS of hexane extracts; type: biochemical, Murgantia histrionica
Procedure: (§3) Assays with heterologously expressed protein were performed in assay buffer (see above) in a total volume of 250 μl with partially purified protein, 1 mM DTT, and 50 µM allylic substrate [(E,E)-, (Z,E)- or (Z,Z)-FPP] and incubated at 30° C. for 1 h with a 250 μL hexane overlay. Assays were stopped on ice and compounds extracted by mixing (vortex) at maximum speed for . . . 15 sec. Phases were separated by centrifugation at 4000×g for 10 min and the hexane phase was removed and dried over MgSO4 One μl of liquid sample was injected in splitless mode and analyzed by GC-MS. For identification of the MhTPS product, assays were scaled up by incubating 1 mL protein in a 7 mL screw top test tube and the obtained hexane extract was used for further analysis. To determine enzyme kinetic parameters, assays were performed in a final volume of 50 μL with 0.3 μg partially purified, E. coli expressed MhTPS enzyme and increasing concentrations of [1-3H]-(E,E)-FPP (64 uCi mmol-1). Assays were incubated in triplicate at 30° C. for 5 min prior to extraction of the reaction product with 250 μl hexane. Quantification of the radioactive product were as described by Tholl et al. (Tholl et al., 2005). Calculation of Km and Vmax values was performed by rectangular hyperbolic regression analysis using the Hyperbolic Regression Analysis (HYPER 1.01) software (J. S. Easterby, University of Liverpool).
as §1

[4] = Kinetic analysis of E. coli expressed MhTPS with [1-3H]-(E,E)-FPP; type: biochemical, Murgantia histrionica; details: (E,E)-FPP as the substrate
Procedure: as §3

[5] = IDS activity assay of recombinant H. halys HhIDS2, LC-MS; type: biochemical, Halyomorpha halys; details: IPP and DMAPP
Procedure: as §2, with “μl […] dimethylallyl diphosphate” for “μl 50 μM dimethylallyl diphosphate”, “et al. (2016).” for “et al. (Beran et al., 2016).”

## CCC\C=C/C=C/C=C/C(=O)OC [MDT, methyl (E,E,Z)-2,4,6-decatrienoate]
H. halys
  increase in captured bugs: 70%

B1: HhIDS1: IDS-type sesquiterpene synthase of Halyomorpha halys, 377 amino acids, main product elemol, GenBank MG917093 (protein)
chain: MIPKTLGNFTGYVLRIALNKKHVNVRHKLDTDIGKYYQTLNDVVIPECMEFVKDAQGLPQRMKECIGYTTPYCYEGWNFCVELLYKTVADKPHQTEENLKKMRILRVLSDMSHSMHFILDDYADKAEFRQGKKIWASICEGGQEAAIYDTFTVNYLINCMLQRHFRNDPGFTKMCEMFSWVNGNSGIGQVLDILDHKNSDFSDYASWKNKVEYKSRNTMCAFPVLGLLHAGLTCNDLIHKTMDIFGDYGLMFQVWNDFMDFYSVQEESGKGNYDCKNNVKTWATITAMSHFNPAQAKEFRDCYGTNDPAKRSRVRELFDEIDLPRKYLDYLRNIRVTVEKKISELSDARVRDASTSYLEWLHGNGHHDVELEILKAP
modifications: HhTPS2
notes: IDS-type sesquiterpene synthase of Halyomorpha halys, 377 amino acids, main product elemol, GenBank MG917093
[1]; either (E,E)-FPP or (Z,E)-FPP as substrates
  sesquiterpene products: several sesquiterpene olefins and alcohols at low abundance

B2: MhTPS1: IDS-type sesquiterpene (sesquipiperitol) synthase of Murgantia histrionica, 385 aa, GenBank MG662378, SEQ ID NO: 1 (protein)
chain: MVSIAAKSLPKLSGAVFGQFSRRKQLIQRHWLDTRTDQYYDVLRRIVVPECKNIASDVPEYPERIEKLLYYTNPAFSDAWNFTTELIYRTVADESHQTEENITKMYLIRATMDLLFTMSAVLDDISDRSEFRKGKKGWHMICQGGESTALYDGTQMGLFPLYLLKQYFKNDPGYSRLLETVVMTYIKLTIGQTIDVLGQFKKSPSMAEYKRINYYKAGQFVAAGSELAVIHAGITSQDLIDKTVEIFTIAGQIIQTWDDFNDYYSSSEQNGKLSCDFMNAGTTWVSAKAMEVFTPSQAVKFMECYGSDDQSKMKTVQELYDEIDMPKLYTEYVLENYNRCETLIKELPHDRLREACSSYMEWLVVRETPDEDSEHKVALCLNISG
modifications: Murgantia histrionica “harlequin bug” Terpene Synthase (TPS)
[2]
  IDS activity: formation of FPP: not observed
[3]; (E,E)-FPP as a substrate, N-terminal His-tag, E. coli
  sesquiterpene synthase activity, product: a terpene alcohol as its main product
[3]; (E,E)-FPP as substrate
  pH of highest activity: 7
[3]; (Z,E)-FPP as substrate
  sesquipiperitol production: at lower levels
[3]; (Z,Z)-FPP as the substrate
  enzymatic activity: almost no enzymatic activity
[3]; GPP as substrate
  conversion of GPP, products: several monoterpene olefins
[3]; between 0.1 and 10 mM Mg^2+, (E,E)-FPP as substrate
  increase of activity (relative amount of sesquipiperitol): approximately 2 fold
[3]; incubated with IPP and DMAPP
  formation of terpene products: no formation of terpene products
[4]
  Vmax: 675.3±53.7 pkat/mg
  kcat: 0.03 ± 0.003 s⁻¹
[4]; read-out: apparent Km
  Km: 4 ± 0.7 µM

B3: HhIDS2: bona fide IDS enzyme of Halyomorpha halys making (E,E)-FPP, 403 amino acids, GenBank MG870389 (protein)
chain: MPFAKLCVQKLSNPLMKLCYPNLNGRLSLSKFSNSLDNSTFKFLSCNPHTICREHNTVAIRPQTITKDDKRDFMAVFPDIVRDLTQQDPGISDLSTLISKLMQYNVSGGKKVRGLTVVYSYRMLAPDHDLTPENIRLAQILGWCVEMLQGFFVVIDDLTDQSVTRRGRPCWYRLPGIGLRASSDALLIQAGTFQLLQQHCKDKEFYVDLVELFLDATRRTTYGQTLDLVSSFPNITHLTMDRYNFITKYKTSYYTFHLPVAIAMYMAGIYNTELHRQAKSVLLEMGHYFQVQDDYLDVFSDEEVSGKKGTDIQEGKCTWLAIIAFQRASPSQREILESCYGSKDPEKIQKVKDIFIEIGLPAVFHAYEEETYNLITRQIQQLSEGLPHELFLTLLHKMYGRKQ
modifications: HhFPPS
notes: bona fide IDS enzyme of Halyomorpha halys making (E,E)-FPP, 403 amino acids, GenBank MG870389
[1]; FPP isomers as substrate
  terpene product formation: did not produce a terpene product
[5]
  IDS activity: product: only (E,E)-FPP
